Laboratory results from publication PMC6445466 (2019).

B1: BAD16-C (residues 204-352, B. afzelii strain PGau) (domain or fragment)
chain: SNRYESYLEGVKYNVSSAIKTIVKIYDNYTLLSTKQTQMYSTRLDNLAKAKAREEAKKFTKEELEKDLKTLLNYIQVSARTATNFVYAREIYSKRKLDAIETEIKNLVLKIKGQSDLYEAYKAIVRSILLMKDSLKIIEIVIDKNGVWY

Key:
human C1 complex = human C1 complex (human, UniProt P02745 23-245; P02746 28-253; P02747 29-245); assay: SPR
[1] = target: B1; assay: SPR

Binder | Kd (human C1 complex) [nM] | Kd [1] [nM]
B1 | 5.4 | –
BBK32-C (residues 206-354, B. burgdorferi strain B31) (domain or fragment) SNRYQSYLEGVKYNVDSAIQTITKIYNTYTLFSTKLTQMYSTRLDNFAKAKAKEEAAKFTKEDLEKNFKTLLNYIQVSVKTAANFVYINDTHAKRKLENIEAEIKTLIAKIKEQSNLYEAYKAIVTSILLMRDSLKEVQGIIDKNGVWY | 6 | –
human C1r, full-length enzyme (enzyme) SIPIPQKLFGEVTSPLFPKPYPNNFETTTVITVPTGYRVKLVFQQFDLEPSEGCFYDYVKISADKKSLGRFCGQLGSPLGNPPGKKEFMSQGNKMLLTFHTDFSNEENGTIMFYKGFLAYYQAVDLDECASRSKSGEEDPQPQCQHLCHNYVGGYFCSCRPGYELQEDTHSCQAECSSELYTEASGYISSLEYPRSYPPDLRCNYSIRVERGLTLHLKFLEPFDIDDHQQVHCPYDQLQIYANGKNIGEFCGKQRPPDLDTSSNAVDLLFFTDESGDSRGWKLRYTTEIIKCPQPKTLDEFTIIQNLQPQYQFRDYFIATCKQGYQLIEGNQVLHSFTAVCQDDGTWHRAMPRCKIKDCGQPRNLPNGDFRYTTTMGVNTYKARIQYYCHEPYYKMQTRAGSRESEQGVYTCTAQGIWKNEQKGEKIPRCLPVCGKPVNPVEQRQRIIGGQKAKMGNFPWQVFTNIHGRGGGALLGDRWILTAAHTLYPKEHEAQSNASLDVFLGHTNVEELMKLGNHPIRRVSVHPDYRQDESYNFEGDIALLELENSVTLGPNLLPICLPDNDTFYDLGLMGYVSGFGVMEEKIAHDLRFVRLPVANPQACENWLRGKNRMDVFSQNMFCAGHPSLKQDACQGDSGGVFAVRDPNTDRWVATGIVSWGIGCSRGYGFYTKVLNYVDWIKKEMEEED | – | 2.2
